# How the values were obtained:
# [1] = target: Jurkat-EBOV GPCL (Zaire ebolavirus (EBOV), Makona)
# [2] = target: Jurkat-EBOV GP (Zaire ebolavirus (EBOV), Makona)
# rEBOV-520 LALA (antibody), sequence (VH): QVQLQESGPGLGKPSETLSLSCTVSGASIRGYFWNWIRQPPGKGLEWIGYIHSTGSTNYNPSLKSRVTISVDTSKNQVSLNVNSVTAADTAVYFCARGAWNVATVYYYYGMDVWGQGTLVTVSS
# rEBOV-520 LALA (antibody), sequence (VL): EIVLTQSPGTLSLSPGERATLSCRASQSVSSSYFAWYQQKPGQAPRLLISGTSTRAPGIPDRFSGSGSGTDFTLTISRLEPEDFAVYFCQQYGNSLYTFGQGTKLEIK
substance,measurement,setting,value
MR72 (antibody),fold decrease in binding,[1],2.8 fold
rEBOV-520 LALA (antibody),fold increase in binding,[2],< 4.6 fold
